Laboratory results from patent US12514853B2, “Therapeutic dendrimer” (Starpharma Pty Ltd, priority 2018, dated 2026).
Where “and” joins values, the source holds several entries; their conditions need not be identical. Equal entries are not always repeated. Where two headings read alike, the source gives them in different places.

Experiments:
[1] = test system: HT-29 cells (human colon cancer cell line); assay: In-vitro anti-cancer drug screening, cell counting (SRB) assay; assay type: cell-based; details: concentration required to inhibit net cell growth by 50%
Method: A study was carried out to determine the ability of example dendrimers to inhibit growth of HT-29 cells (human colon cancer cell line) using a cell counting (SRB) assay.

[2] = plasma release study (SN-38 release in rat plasma); assay type: in vitro ADME; details: 37° C.
[3] = SN-38 release from dendrimers in 9:1 PBS/DMA at 37° C. and pH 7.4; assay type: physicochemical; details: SN-38 released, pH 7.4, 1 mg/mL dendrimer
Method: A study was carried out to determine the rate of SN-38 release from certain dendrimeric compounds in 9:1 PBS (phosphate-buffered saline): DMA at 37° C. and pH 7.4.
The PBS release study was conducted by preparing 1 mg/mL solutions of dendrimer in 9:1 v/v (PBS/DMA) immediately prior to incubation at 37° C. Samples were analysed at 6 h and 18 h and other timepoints by HPLC, comparing the % peak area of SN-38 to the % peak area of dendrimer construct. HPLC (C8 Xbridge, 3×100 mm), gradient: 5% ACN/H2O (0-1 min), 5-80% ACN (1-7 min), 80% ACN (7-12 min), 80-5% ACN (12-13 min), 5% ACN (13-15 min), 243 nm, 10 mM ammonium formate buffer, 0.4 mL/min.

[4] = test system: SW620 (human colon carcinoma cell line) xenograft; assay: Efficacy in SW620 xenograft model in mice; details: for effect on SW620 tumour growth / tolerability: irinotecan 90 mg/kg; for effect on SW620 tumour growth: 2f 15, 2i 15, 2h 25, 2a 25 mg/kg IV days 1, 8, 15, study to day 119; for tolerability: 2f 15, 2i 15, 2h 25, 2a 25 mg/kg IV once weekly for three weeks
[5] = for tolerability: 2f 15 mg/kg, 2i 15 mg/kg, 2h 25 mg/kg, 2a 30 mg/kg SN-38 equivalents, IV once weekly for three weeks
[6] = test system: MDA-MB-231 (human breast carcinoma cell line) xenograft; assay: Efficacy in MDA-MB-231 xenograft model in mice; assay type: in vivo, Balb/c nude mice; details: irinotecan 90 mg/kg, 2f 15, 2h 25 mg/kg IV once weekly for three weeks
[7] = test system: CAPAN-1 (pancreatic cancer cell line) xenograft; assay: Efficacy in CAPAN-1 xenograft model in mice; assay type: in vivo
[8] = test system: HT-29 (human colon carcinoma cell line) xenograft; assay: Efficacy alone or in combination with cetuximab in HT-29 xenograft model in mice
[9] = Single dose pharmacokinetic study in rats; details: rat, single slow bolus IV
[10] = test system: HT-29 (human colon carcinoma cell line) xenograft; assay: Efficacy alone or in combination with olaparib in HT-29 xenograft model in mice; assay type: in vivo, Balb/c nude mice; details: for Percent TGI: day 28
Method: Olaparib solid powder obtained from MedChemExpress was solubilised in DMSO and an oral formulation was prepared at a final concentration of 5 mg/ml in 10% DMSO: 15% (2-Hydroxypropyl)-β-cyclodextrin in sterile water.
The endpoint for the analysis was a tumour volume of 1200 mm^3.
Statistical analysis of tumour growth was performed on day 28 when the first study animals reached endpoint criteria for tumour burden.

[11] = test system: HT-29 (human colon carcinoma cell line) xenograft; assay: Efficacy in HT-29 xenograft model in mice; assay type: in vivo, Balb/c nude mice
[12] = 30 mg/kg SN-38 equivalents IV once weekly for 3 weeks
[13] = high dose 2f (approx. 16.5 mg/kg SN-38 equivalents)
[14] = low dose 2f (approx. 1.3 mg/kg SN-38 equivalents)
[15] = medium dose 2f (approx. 7.5 mg/kg SN-38 equiv)

For `CCc1c2c(nc3ccc(O)cc13)-c1cc3c(c(=O)n1C2)COC(=O)[C@]3(O)CC` [SN-38, reference compound], the GI50 ([1]; Homo sapiens) was < 10 nM.
In the case of “BHALys[Lys]32[α-TDA-C20-SN-38]32†[ε-PEG˜2300]32‡ [Dendrimer 2d]”, the “% SN-38 released” value ([2]; 0.5 h) was 1.87%, the “% SN-38 released” value ([2]; 2 h) was 5.47% and the “% SN-38 released” value ([2]; 4 h) was 9.50%. The “% SN-38 released” value ([2]; 6 h) was 14.92%, the “% SN-38 released” value ([2]; 22 h) was 46.69% and the GI50 [1] was 140 nM. The “% Release at 6 h in 9:1 PBS/DMA at 37° C.” value [3] was 5% and the “% Release at 18 h in 9:1 PBS/DMA at 37° C.” value [3] was 13%.
For “BHALys[Lys]32[α-TDA-C10-SN-38]32†[ε-PEG˜2100]32‡ [Dendrimer 2c]”, the “% SN-38 released” value ([2]; 0.5 h) was 20.52%, the “% SN-38 released” value ([2]; 2 h) was 38.32% and the “% SN-38 released” value ([2]; 4 h) was 48.79%. For the same molecule, the “% SN-38 released” value ([2]; 6 h) was 53.42%, the “% SN-38 released” value ([2]; 22 h) was 69.8% and the GI50 [1] was 30 nM. For the same molecule, the “% Release at 6 h in 9:1 PBS/DMA at 37° C.” value [3] was 54% and the “% Release at 18 h in 9:1 PBS/DMA at 37° C.” value [3] was 55%.
In the case of “BHALys[Lys]32[α-Glu-C10-SN-38]32†[ε-PEG˜2300]32‡ [Dendrimer 2a]”, the “animals euthanized due to weight loss” value ([4]; 2a 25 mg/kg IV days 1, 8, 15, group of 6) was “One animal from the 2a group was euthanized during the study due to weight loss on Day 99”, the “effect on SW620 tumour growth” value [4] was “induce regression of SW620 tumours” and the tolerability [4] was “well tolerated”. The “% SN-38 released” value ([2]; 0.5 h) was 1.59%, the “% SN-38 released” value ([2]; 2 h) was 4.47% and the “% SN-38 released” value ([2]; 4 h) was 7.57%. The “% SN-38 released” value ([2]; 6 h) was 11.28%, the “% SN-38 released” value ([2]; 22 h) was 42.46% and the “Max. body weight loss (%)” value ([5]; 10 mg/kg SN-38 equivalents IV once weekly for 3 weeks) was 0%. The “Max. body weight loss (%)” value [5, 12] was 10%, the tolerability [5] was “well tolerated” and the GI50 [1] was 130 nM. The “% Release at 6 h in 9:1 PBS/DMA at 37° C.” value [3] was 9% and the “% Release at 18 h in 9:1 PBS/DMA at 37° C.” value [3] was 38%.
For “BHALys[Lys]32[α-DGA-C10-SN-38]32†[ε-PEG˜2300]32‡ [Dendrimer 2e]”, the “% SN-38 released” value ([2]; 0.5 h) was 30.58%, the “% SN-38 released” value ([2]; 2 h) was 57.54% and the “% SN-38 released” value ([2]; 4 h) was 67.96%. For the same molecule, the “% SN-38 released” value ([2]; 6 h) was 75.16%, the “% SN-38 released” value ([2]; 22 h) was 95.38% and the GI50 [1] was < 10 nM. For the same molecule, the “% Release at 6 h in 9:1 PBS/DMA at 37° C.” value [3] was 64% and the “% Release at 18 h in 9:1 PBS/DMA at 37° C.” value [3] was 71%.
With “BHALys[Lys]32[α-DGA-C20-SN-38]32†[ε-PEG˜2100]32‡ [Dendrimer 2f]” the “effect on MDA-MB-231 tumour growth” value [6] was “induce MDA-MB-231 tumour regression”, the “effect on SW620 tumour growth” value [4] was “induce regression of SW620 tumours” and the tolerability [4] was “well tolerated”. The “% SN-38 released” value ([2]; 0.5 h) was 5.06%, the “% SN-38 released” value ([2]; 2 h) was 24.56% and the “% SN-38 released” value ([2]; 4 h) was 45.36%. For the same molecule, the “% SN-38 released” value ([2]; 6 h) was 61.81%, the “% SN-38 released” value ([2]; 22 h) was 95.61% and the “Max. body weight loss (%)” value ([5]; 15 mg/kg SN-38 equivalents IV once weekly for 3 weeks) was 4%. For the same molecule, the “Max. body weight loss (%)” value ([5]; 20 mg/kg SN-38 equivalents IV once weekly for 3 weeks) was 10%, the “Max. body weight loss (%)” value [5, 12] was 22% and the tolerability [5] was “well tolerated”. The “effect on CAPAN-1 tumour growth” value ([7]; administered intraperitoneally once weekly for three weeks) was “induces CAPAN-1 tumour regression”, the “effect on CAPAN-1 tumour growth” value ([7]; administered intravenously once weekly for three weeks) was “induces CAPAN-1 tumour regression” and the survival versus cetuximab ([8]; 2f 10 and 5 mg/kg vs cetuximab 25 mg/kg) was “prolonged survival versus cetuximab”. The survival versus irinotecan ([8]; 2f 10 and 5 mg/kg vs irinotecan 35 mg/kg, P<0.0001) was “significantly prolonged survival versus irinotecan”, the GI50 [1] was 50 nM and 40 nM and the “AUC0-∞, free SN-38” value [9, 13] was 6,677 ng · hr/mL. For the same molecule, the “Cmax, free SN-38” value [9, 13] was 289 ng/mL, the “Cmax, total SN-38” value [9, 13] was 306,500 ng/mL and the “Free SN-38 at 120 hours” value [9, 13] was 10.8 ng/mL. For the same molecule, the “Total SN-38 at 120 hours” value [9, 13] was 792.5 ng/mL, the “AUC0-∞, free SN-38” value [9, 14] was 1,196 ng · hr/mL and the “Cmax, free SN-38” value [9, 14] was 93 ng/mL. The “Cmax, total SN-38” value [9, 14] was 32,767 ng/mL, the “Free SN-38 at 120 hours” value [9, 14] was 0.8 ng/mL and the “Total SN-38 at 120 hours” value [9, 14] was 111.5 ng/mL. The “AUC0-∞, free SN-38” value [9, 15] was 3,179 ng · hr/mL, the “Cmax, free SN-38” value [9, 15] was 164 ng/mL and the “Cmax, total SN-38” value [9, 15] was 150,334 ng/mL. The “Free SN-38 at 120 hours” value [9, 15] was 3.7 ng/mL, the “Total SN-38 at 120 hours” value [9, 15] was 498 ng/mL and the “% Release at 6 h in 9:1 PBS/DMA at 37° C.” value [3] was 24%. The “% Release at 18 h in 9:1 PBS/DMA at 37° C.” value [3] was 55%, the “tumour growth and tumour regression versus irinotecan” value ([10]; 2f 5 and 8 mg/kg vs irinotecan 80 mg/kg, P <0.0001) was “significantly inhibited tumour growth and prolonged tumour regression versus irinotecan” and the “tumour regression versus olaparib” value ([10]; 2f 5 and 8 mg/kg vs olaparib 50 mg/kg) was “prolonged tumour regression versus olaparib”. For the same molecule, the “Percent TGI” value ([10]; 5 mg/kg 2f IV days 1, 8, 15, alone or with olaparib 50 mg/kg orally) was 62%, the “Percent TGI” value ([10]; 8 mg/kg 2f IV days 1, 8, 16, alone or with olaparib 50 mg/kg orally) was 94% and 97% and the “effect on HT-29 tumour growth (in words)” value ([10]; olaparib 50 mg/kg orally, irinotecan 80 mg/kg IV, their combination, 2f 5 and 8 mg/kg IV) was “clear dose dependent repose with statistically significant inhibition of tumour growth”. For the same molecule, the “effect on HT-29 tumour growth” value ([11]; 2f 15, 2i 15, 2h 25 mg/kg SN-38 equivalents IV once weekly) was “induce transient regression of HT-29 tumours” and the Tumour growth inhibited ([11]; day 36, vs vehicle, irinotecan 90 mg/kg, 2f 15, 2i 15, 2h 25 mg/kg IV) was 108%.
